Assay results as given in the RNAGym collection of RNA variant scans (doi:10.7554/elife.80360).

B1: CPEB3 Ribozyme (parent)
chain: GGGGGCCACAGCAGAAGCGUUCACGUCGCGGCCCCUGUCAGAUUCUGGUGAAUCUGCGAAUUCUGCUGU

Variants of: B1
Test: self-cleavage, relative activity (ratio to wild type); higher = more cleavage; co-transcriptional

In order of falling self-cleavage:
1. GGGGGCCACAGCAGAAGCGUUCACGUCGCGGCCCCUGCCAGAUUCUGGUGAAUCUGCGGAUUCUGCUGU [U38C A59G]  1.01
2. GGGGGCCACAGCAGAAGCGUUCACGUCGCGGCCCCUGCCAGAUUCUGUUGAAUCUGCGAAUUCUGCUGU [U38C G48U]  1
3. GGGGGCCACAGCAGAAGCGUUCACGUCGCGGCCCCUGAGAGAUUCUGGUGAAUCUGCGAAUUCUGCUGU [U38A C39G]  0.994
4. GGGGGCCACAGCAGAAGCGUUCACGUCGCGGCCCCUGCCAGAUUCUGCUGAAUCUGCGAAUUCUGCUGU [U38C G48C]  0.986
5. GGGGGCCACAGCAGAAGCGUUCACGUCGCGGCCCCUGACAGAUUCCGGUGAAUCUGCGAAUUCUGCUGU [U38A U46C]  0.954
6. GGGGGCCACAGCAGAAGCGUUCACGUCGCGGCCCCUGCCAGAUUCUGGUUAAUCUGCGAAUUCUGCUGU [U38C G50U]  0.952
7. GGGGGCCACAGCAGAAGCGUUCACGUCGCGGCCCCUGACAGAUUCUGGUGAAUCUGCGAAUUCUGCCGU [U38A U67C]  0.943
8. GGGGGCCACAGCAGAAGCGUUCACGUCGCGGCCCCUGACAGAUUCAGGUGAAUCUGCGAAUUCUGCUGU [U38A U46A]  0.941
9. GGGGGCCACAGCAGAAGCGUUCACGUCGCGGCCCCUGCCAGAUUCUGGUGUAUCUGCGAAUUCUGCUGU [U38C A51U]  0.935
10. GGGGGCCACAGCAGAAGCGUUCACGUCGCGGCCCCUGACAGAUUCUGGUGAAUCUGCGAAUUCUGCUAU [U38A G68A]  0.922
11. GGGGGCCACAGCAGAAGCGUUCACGUCGCGGCCCCUGACAGAUUCUGGUGAAUCUGCCAAUUCUGCUGU [U38A G58C]  0.921
12. GGGGGCCACAGCAGAAGCGUUCACGUCGCGGCCCCUGACAGAUUCUGGUGCAUCUGCGAAUUCUGCUGU [U38A A51C]  0.908
13. GGGGGCCACAGCAGAAGCGUUCACGUCGCGGCCCCUGACAGAUUCUGGUGACUCUGCGAAUUCUGCUGU [U38A A52C]  0.898
14. GGGGGCCACAGCAGAAGCGUUCACGUCGCGGCCCCUGACAGAUUCUGGUGGAUCUGCGAAUUCUGCUGU [U38A A51G]  0.89
15. GGGGGCCACAGCAGAAGCGUUCACGUCGCGGCCCCUGACAGAUUCUGGUGAAUCUUCGAAUUCUGCUGU [U38A G56U]  0.875
16. GGGGGCCACAGCAGAAGCGUUCACGUCGCGGCCCCUGACAGAUUCUGGUGAAUCUGCGAAUUCGGCUGU [U38A U64G]  0.858
17. GGGGGCCACAGCAGAAGCGUUCACGUCGCGGCCCCUGCCAGAUGCUGGUGAAUCUGCGAAUUCUGCUGU [U38C U44G]  0.851
18. GGGGGCCACAGCAGAAGCGUUCACGUCGCGGCCCCUGACGGAUUCUGGUGAAUCUGCGAAUUCUGCUGU [U38A A40G]  0.808
19. GGGGGCCACAGCAGAAGCGUUCACGUCGCGGCCCCUGACAGAUCCUGGUGAAUCUGCGAAUUCUGCUGU [U38A U44C]  0.802
20. GGGGGCCACAGCAGAAGCGUUCACGUCGCGGCCCCUGACAGAUUCUGGUGAAUCUGCGAAUUCAGCUGU [U38A U64A]  0.799
21. GGGGGCCACAGCAGAAGCGUUCACGUCGCGGCCCCUGCCAGAUUCUGGUGAAUCUGCGAAAUCUGCUGU [U38C U61A]  0.759
22. GGGGGCCACAGCAGAAGCGUUCACGUCGCGGCCCCUGCCAGAUUCUGGUGAAUCUGCGAAGUCUGCUGU [U38C U61G]  0.759
23. GGGGGCCACAGCAGAAGCGUUCACGUCGCGGCCCCUGAAAGAUUCUGGUGAAUCUGCGAAUUCUGCUGU [U38A C39A]  0.748
24. GGGGGCCACAGCAGAAGCGUUCACGUCGCGGCCCCUGCCAUAUUCUGGUGAAUCUGCGAAUUCUGCUGU [U38C G41U]  0.705
25. GGGGGCCACAGCAGAAGCGUUCACGUCGCGGCCCCUGACCGAUUCUGGUGAAUCUGCGAAUUCUGCUGU [U38A A40C]  0.703
26. GGGGGCCACAGCAGAAGCGUUCACGUCGCGGCCCCUGCCAGAUUCUGGUGAAUAUGCGAAUUCUGCUGU [U38C C54A]  0.61
27. GGGGGCCACAGCAGAAGCGUUCACGUCGCGGCCCCUGACAGAUUCUGGUGAAUCUCCGAAUUCUGCUGU [U38A G56C]  0.466
28. GGGGGCCACAGCAGAAGCGUUCACGUCGCGGCCCCUGACAGAUUCUGGUGAAUCUGCGAUUUCUGCUGU [U38A A60U]  0.453
29. GGGGGCCACAGCAGAAGCGUUCACGUCGCGGCCCCUGCCAGAUUCUGGUGAAUCUGUGAAUUCUGCUGU [U38C C57U]  0.409
30. GGGGGCCACAGCAGAAGCGUUCACGUCGCGGCCCCUUUCAGAUUCUGGUGAAUCUGCGAAUUCUGCUUU [G37U G68U]  0.375
31. GGGGGCCACAGCAGAAGCGUUCACGUCGCGGCCCCUGCCAGAUUCUGGUGAAUCUGCGAUUUCUGCUGU [U38C A60U]  0.331
32. GGGGGCCACAGCAGAAGCGUUCACGUCGCGGCCCCUUUCAGAUUCUGGUCAAUCUGCGAAUUCUGCUGU [G37U G50C]  0.315
33. GGGGGCCACAGCAGAAGCGUUCACGUCGCGGCCCCUGCCAGAUUCUGGUGAAUCUGCGCAUUCUGCUGU [U38C A59C]  0.306
34. GGGGGCCACAGCAGAAGCGUUCACGUCGCGGCCCCUGCCAGAUUCUGGUGAAUCUGAGAAUUCUGCUGU [U38C C57A]  0.3
35. GGGGGCCACAGCAGAAGCGUUCACGUCGCGGCCCCUGACAGAUUCUGGUGAAUCUGGGAAUUCUGCUGU [U38A C57G]  0.297
36. GGGGGCCACAGCAGAAGCGUUCACGUCGCGGCCCCUUUCAGAUUCUGGUGAAUCUGCGAAAUCUGCUGU [G37U U61A]  0.263
37. GGGGGCCACAGCAGAAGCGUUCACGUCGCGGCCCCUGCCAGAUUCUGGUGAAUCGGCGAAUUCUGCUGU [U38C U55G]  0.242
38. GGGGGCCACAGCAGAAGCGUUCACGUCGCGGCCCCUUUCAGAUCCUGGUGAAUCUGCGAAUUCUGCUGU [G37U U44C]  0.188
39. GGGGGCCACAGCAGAAGCGUUCACGUCGCGGCCCCUUUCAGAUUCUGGUGAAUCUGCAAAUUCUGCUGU [G37U G58A]  0.17
